Test results reported in paper PMC12421842.

Biological target: T1, HicB (HicB-His) (Neisseria gonorrhoeae FA1090) (UniProt Q5F6D2)
T1 sequence: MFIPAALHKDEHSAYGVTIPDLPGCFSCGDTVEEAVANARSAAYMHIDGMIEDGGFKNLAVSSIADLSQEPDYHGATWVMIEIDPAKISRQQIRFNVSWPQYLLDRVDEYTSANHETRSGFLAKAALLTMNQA
Test: competition
Conditions: EMSA: 20 mM HEPES pH 7.6, 1 mM EDTA, 10 mM (NH4)2SO4, 1 mM DTT, 0.2% Tween-20, 30 mM KCl, 1.25 ng/uL calf thymus DNA, 30 min at 30 C

With “TTCACCCTTGCCTGTGCTGCCAAAGCAGCCATCGGCGGTTTTGCTTTCTGTTCCACTTTCCGTCGCGTTACCGCGCCCGGCCGTTAACCGGCATTCTACCCTGCGGAGCCCGGACTTTCCTCCCCGTAT (double strand) [rnpB fragment]” the binding was “no binding”.
